Article PMC9239096

System: T1, KdpE-MBP (Sinorhizobium fredii CCBAU45436 (SF4)), ORF:2638478e
T1 sequence: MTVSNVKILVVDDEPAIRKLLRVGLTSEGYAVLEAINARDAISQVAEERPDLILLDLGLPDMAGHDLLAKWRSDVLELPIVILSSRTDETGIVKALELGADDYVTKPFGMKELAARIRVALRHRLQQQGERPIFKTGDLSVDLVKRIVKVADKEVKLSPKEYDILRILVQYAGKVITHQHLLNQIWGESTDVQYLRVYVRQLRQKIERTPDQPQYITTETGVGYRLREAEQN
Test: EMSA
Settings: 25 mM Tris-HCl pH 8.0, 0.5 mg/mL BSA, 0.1 mg/mL sonicated salmon sperm DNA, 5% glycerol, 0.05% DDM; 10 uL, 20 C, 30 min; 6% native PAGE

In the case of “TCCTCCTGCGCCTCTCTCGAACCTTTATGCGGTTCGGAGCCATATTCCTGACAAGATCCATCCACCGCCGCGCCGAACTCGATCGTCGCGCCGGGATGCGCACATCGATCGCGATCACCTGCCGGGCGGCCCGGCGCTGCCTCCAGGTGACGCGCAGTCAGTAGAAACAACGCACAGGGATTACCGACATGGACATTGTCGTTCTCGCAATAGGCATCGTGTTCTTCGCCTTATCGTTTGCCTATGTCCGGGCGTGCAGCAACCTCTAATCGCGGAGCGGAAAGATG (double strand) [Probe1_kdpF]”, the binding is reported as “no binding”.
